Patent US20220403326A1, “MEDIA FORMULATIONS AND METHODS FOR PRODUCING PROGENITOR T CELLS” (priority 2019, published 2022)

Experiments:
Assay type in all cases: cell-based, human
CD34+ HSPCs [1] = assay: TPO requirement with or without TNFα, 14-day culture; conditions: 14 days
Protocol: To assess the requirement for TPO in T lineage development, CD34+ HSPCs were analyzed by flow cytometry after 14 days in the presence or absence of TNFα, and further in the presence or absence of TPO.

CD34+ HSPCs [2] = assay: Definitive screening design cytokine screen for proT cell differentiation and expansion; conditions: for effect on total live cells, CD7+ lymphocytes and CD7+CD5+ cells relative to the control condition: day 0-7 and day 7-14, control SCF, FLT3L, TPO, IL-7 at 20 ng/ml each, linear regression model
Protocol: For experiments 7 days or longer, HSPCs were seeded at 63-125 cells/mm^2 (equivalent to 2000-4000 cells/well of a 96-well plate) on DL4+VCAM-1-coated surfaces. Experiments shorter than 7 days (CFSE and qPCR) were seeded at 470-780 cells/mm^2 (equivalent to 15,000-25,000 cells/well of a 96-well plate) to provide enough cells for analysis. Cells were cultured in 100 μl/well (32 μl/well for 384-well plate) of Iscove's Modified Eagle Medium (IMDM) supplemented with 20% bovine serum albumin, insulin, and transferrin (BIT 9500) serum substitute (Stemcell Technologies), 1 μg/ml low-density lipoprotein (LDL; Stemcell Technologies), 60 μM ascorbic acid (Sigma), 24 μM 2-mercaptoethanol (Sigma), and 1% penicillin-streptomycin (P/S; Invitrogen). The cytokines used in control condition were SCF, FLT3L, TPO, and IL-7 (also known as the “4F cytokines”, all of which were obtained from R&D Systems), each at a concentration of 20 ng/ml or 100 ng/ml as indicated in the text. All other cytokines were purchased from R&D Systems and used in the combinations and concentrations indicated in the text. For certain experiments, the γ-secretase inhibitor (2S)-N-[(3,5-Difluorophenyl)acetyl]-L-alanyl-2-phenyl] glycine 1,1-dimethylethyl ester (DAPT) or dimethyl sulfoxide (DMSO) was added to media at the concentrations indicated in the text.
For screening experiments, a Definitive Screening Design (DSD)^7 was employed where each factor was tested at three levels (scaled to [−1,0,1]). The design included at least 2m+1 runs, where m is the number of factors, comprised of m fold-over pairs plus a center run (with all factors at level 0) and with orthogonal blocking of UCB donors.^8
Absolute cell numbers were acquired for each cell population of interest and, for initial experiments, a z-score was calculated relative to the control condition:
where SE(⋅) is the standard error. Control conditions were the cytokines used previously in the DL4+VCAM-1 assay as in Shukla et al.^6 Stepwise regression using the minimum Bayesian information criterion method was used to determine significant terms and, from this, a linear regression model of z-scores was constructed that included main and quadratic effects and two-factor interactions. This provided a better- or worse-than estimate for each factor compared to the control. The DSD layout and regression model were constructed using JMP 13 software (SAS). Follow up experiments measuring the dose response of top factors, the regression model was fit to the absolute cell count. Values were square root or log-transformed as necessary to ensure that residuals were approximately normal before fitting the regression model.
Test conditions were arranged using serial dilutions of each cytokine and laid out using an Eppendorf epMotion 5070 liquid handler in 384-well plates previously coated with DL4 and VCAM-1.
To identify factors that enhance proT cell differentiation and expansion, a two-part screen was conducted from day 0-7 and day 7-14 to separate the effects of screened molecules on HSPCs and differentiating proT cells (FIG. 1a). Screened molecules were tested at three doses each in combination using a definitive screening design (DSD) experiment and a linear regression model was fit to empirical data to estimate dose response.^7 The response to factors was measured against a control condition that contained SCF, FLT3L, TPO and IL-7 cytokines as in Shukla et al.^6 but using a lower concentration of 20 ng/ml each.
Medium gray indicates the effect of the control condition; dark gray to black indicates an effect greater than the control condition; and light gray to white indicates an effect lesser than the control condition. The size of each circle indicates the significance of the effect in the linear regression model. Combinations of factors indicate two-factor interactions (e.g., TPO*IL-1β) or quadratic effects (e.g., IL-21*IL-21) in the regression model. […] IL-3 and TNFα were selected for further investigation. […]

HSPCs = assay: CFSE proliferation assay of HSPCs on DL4+VCAM-1
Protocol: To track the number of cell divisions, cells were stained with 2.5 μM CellTrace™ CFSE (ThermoFisher) in PBS and incubated at 37° C. for 8 minutes. CFSE was quenched by adding 5 times the volume of IMDM+BIT and incubating at 37° C. for 5 minutes. Cells were then resuspended in fresh media and seeded on DL4+VCAM-1 for culture. For analysis, cells were collected and stained for CD34, CD7, and CD5 surface markers as described above and analyzed using flow cytometry. Proliferation was modelled using FlowJo™ software and further analysis was performed with R.
To track the number of cell divisions in response to each of IL-3 and TNFα, the HSPCs were first stained with carboxyfluorescein succinimidyl ester (CFSE). IL-3 or TNFα were added on day 0 and the number of divisions of each cell was analyzed on days 2, 3, 4 and 5.

CD34+ HSPCs [3] = assay: IL-3, TNFα or IL-3+TNFα culture on DL4+VCAM-1, flow cytometry on day 7 and day 14; conditions: day 7 and day 14 (FIGS. 5d and e)
Protocol: For experiments 7 days or longer, HSPCs were seeded at 63-125 cells/mm^2 (equivalent to 2000-4000 cells/well of a 96-well plate) on DL4+VCAM-1-coated surfaces. Experiments shorter than 7 days (CFSE and qPCR) were seeded at 470-780 cells/mm^2 (equivalent to 15,000-25,000 cells/well of a 96-well plate) to provide enough cells for analysis. Cells were cultured in 100 μl/well (32 μl/well for 384-well plate) of Iscove's Modified Eagle Medium (IMDM) supplemented with 20% bovine serum albumin, insulin, and transferrin (BIT 9500) serum substitute (Stemcell Technologies), 1 μg/ml low-density lipoprotein (LDL; Stemcell Technologies), 60 μM ascorbic acid (Sigma), 24 μM 2-mercaptoethanol (Sigma), and 1% penicillin-streptomycin (P/S; Invitrogen). The cytokines used in control condition were SCF, FLT3L, TPO, and IL-7 (also known as the “4F cytokines”, all of which were obtained from R&D Systems), each at a concentration of 20 ng/ml or 100 ng/ml as indicated in the text. All other cytokines were purchased from R&D Systems and used in the combinations and concentrations indicated in the text. For certain experiments, the γ-secretase inhibitor (2S)-N-[(3,5-Difluorophenyl)acetyl]-L-alanyl-2-phenyl] glycine 1,1-dimethylethyl ester (DAPT) or dimethyl sulfoxide (DMSO) was added to media at the concentrations indicated in the text. […]

## TPO: cytokine thrombopoietin, one of the 4F cytokines
CD34+ HSPCs [1]; TNFα present
  CD7+ lymphoid cell development after removal of TPO: not detrimental
CD34+ HSPCs [1]; absence of TNFα
  number of CD7+ cells after removal of TPO: decreased significantly
CD34+ HSPCs [1]; with or without TNFα
  number of CD14/33+ myeloid cells after removal of TPO: decreased the number of CD14/33+ myeloid cells

## SCF: cytokine stem cell factor, one of the 4F cytokines
CD34+ HSPCs [2]
  effect on total live cells, CD7+ lymphocytes and CD7+CD5+ cells relative to the control condition: string positive effects

B1: IL-7: cytokine interleukin 7, one of the 4F cytokines (protein, UniProt P13232 26-177, looked up)
Interleukin-7: DCDIEGKDGKQYESVLMVSIDQLLDSMKEIGSNCLNNEFNFFKRHICDANKEGMFLFRAARKLRQFLKMNSTGDFDLHLLKVSEGTTILLNCTGQVKGRKPAALGEAQPTKSLEENKSLKEQKKLNDLCFLKRLLQEIKTCWNKILMGTKEH
CD34+ HSPCs [2]
  effect on total live cells, CD7+ lymphocytes and CD7+CD5+ cells relative to the control condition: string positive effects

B2: IL-3: cytokine; protein that in humans is encoded by the IL3 gene (accession P08700; SEQ ID NO: 7) (protein, listed as Homo sapiens)
chain: MSRLPVLLLLQLLVRPGLQAPMTQTTPLKTSWVNCSNMIDEIITHLKQPPLPLLDFNNLNGEDQDILMENNLRRPNLEAFNRAVKSLQNASAIESILKNLLPCLPLATAAPTRHPIHIKDGDWNEFRRKLTFYLKTLENAQAQQTTLSLAIF
HSPCs; CFSE, days 2-5
  average number of divisions vs control: more divisions than the control group
  variance in the number of divisions vs control: significantly larger variance
HSPCs; by day 5
  CD7+ frequency vs control: lower CD7+frequency than the control
HSPCs; cytokine added on day 0, days 2-5
  cell fraction affected (CD7− vs CD7+ cells), number of divisions: predominantly affecting the CD7− fraction
HSPCs; days 2-5
  upregulation of CD7: upregulated CD7 comparably to the control
CD34+ HSPCs [2]
  effect on total live cells, CD7+ lymphocytes and CD7+CD5+ cells relative to the control condition: string positive effects
CD34+ HSPCs [2]; range of concentrations, n=2 UCB donors
  dose response of live cells, CD7+ lymphocytes and CD7+CD5+ proT cells: curved response in at least one population
CD34+ HSPCs [3]
  number of CD14/33+ myeloid lineage cells, IL-3 compared with IL-3+TNFα conditions: similar
